{"source": "paper PMC12884772", "about": "“Macrophagic Sclerostin Loop2‐ApoER2 Interaction Required by Sclerostin for Cardiovascular Protective Action” (Advanced Science, 2025)", "target": "T1, ApoER2 (Mus musculus, UniProt Q924X6)", "T1 construct": "FLAG; expressed in transfected cells; host or cells: RAW264.7", "T1 sequence (Q924X6 29-996)": "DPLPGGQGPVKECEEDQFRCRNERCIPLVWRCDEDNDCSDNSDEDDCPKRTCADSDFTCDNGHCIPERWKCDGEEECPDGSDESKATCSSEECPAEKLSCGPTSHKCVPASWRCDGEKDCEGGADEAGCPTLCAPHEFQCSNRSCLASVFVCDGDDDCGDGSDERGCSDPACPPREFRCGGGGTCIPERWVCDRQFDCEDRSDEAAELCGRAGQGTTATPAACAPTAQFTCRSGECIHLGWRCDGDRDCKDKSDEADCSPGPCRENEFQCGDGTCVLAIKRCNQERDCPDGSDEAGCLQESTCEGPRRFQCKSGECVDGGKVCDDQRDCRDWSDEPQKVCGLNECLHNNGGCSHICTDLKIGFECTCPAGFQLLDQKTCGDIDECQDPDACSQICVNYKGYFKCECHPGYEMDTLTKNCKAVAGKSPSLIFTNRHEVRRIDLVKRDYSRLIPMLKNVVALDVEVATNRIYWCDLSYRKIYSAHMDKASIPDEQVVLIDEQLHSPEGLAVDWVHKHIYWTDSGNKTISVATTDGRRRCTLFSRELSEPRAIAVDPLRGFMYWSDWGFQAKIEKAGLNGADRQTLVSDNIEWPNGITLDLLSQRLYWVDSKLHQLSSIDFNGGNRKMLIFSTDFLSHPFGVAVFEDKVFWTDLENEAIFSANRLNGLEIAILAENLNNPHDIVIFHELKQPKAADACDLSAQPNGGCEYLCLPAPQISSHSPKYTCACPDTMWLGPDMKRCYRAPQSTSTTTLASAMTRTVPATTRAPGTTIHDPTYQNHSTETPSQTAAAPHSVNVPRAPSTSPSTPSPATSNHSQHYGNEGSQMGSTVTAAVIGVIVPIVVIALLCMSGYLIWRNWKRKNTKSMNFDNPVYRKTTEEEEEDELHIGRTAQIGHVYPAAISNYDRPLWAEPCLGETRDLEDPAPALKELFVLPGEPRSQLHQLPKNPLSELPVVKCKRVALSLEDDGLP", "experiment": "Confocal microscopy of cell surface binding of sclerostin to ApoER2", "format": "cell-based", "conditions": "GFP‐ApoER2 overexpressed RAW 264.7, sclerostin 1 µM for 12 h; Figure 6C", "method": "The interaction of full‐length (FL)/truncated ApoER2 with full‐length (FL) /truncated sclerostin in macrophages (RAW264.7) were determined by pull‐down assay and Co‐IP assay. The binding affinity of ApoER2 to FL sclerostin and sclerostin loop2 were determined by biolayer interferometry (BLI) analysis. Moreover, the binding of sclerostin to ApoER2 on macrophages (RAW264.7) was examined by confocal microscopy.\nGFP‐ApoER2 overexpressed RAW 264.7 cells and GFP‐vector overexpressed RAW 264.7 cells were plated in laser confocal dishes (80 000 cells per well) 12 h before the experiment. The recombinant sclerostin was added to make its final concentration 1 µM for 12 h. Cells were washed three times with PBS and then fixed with 4% paraformaldehyde (PFA) in PBS for 15 min, washed three times, blocked in 10% goat serum for 1 h at room temperature and incubated with anti‐sclerostin primary antibody (Thermo, PA5‐113315, 1:100) overnight at 4 °C. Thereafter, cells were washed with PBS three times, then incubated with goat anti‐rabbit IgG H&L (Alexa Fluor 594, 1:200) for 2 h at 37 °C. Hoechst was used to stain the cell nuclei. The fluorescent images were obtained by a confocal microscope (Leica, STELLARIS STED) equipped with a 405 nm laser, a 488 nm laser, and a 594 nm laser.^[ [67] ^]", "data": [{"substance": "sclerostin: recombinant human/mouse full‐length sclerostin protein", "values": [{"measurement": "Cell surface binding of sclerostin to ApoER2", "result": "observed"}]}]}
